This note sets out measurements from paper PMC11476435, “Functional Relationships between L1CAM, LC3, ATG12, and Aβ” (International Journal of Molecular Sciences, 2024).

To fix the notation:
B1: mouse L1-LIR peptide containing the extracellular LC3-interacting region (LIR) motif of L1 (peptide)
peptide: SHNGVLTGYLLSYHPVEGESKEQ
notes: 23-amino-acid peptide of mouse L1 with the LIR motif 952LSYHPV957 of the fourth fibronectin type III homologous repeat; source: synthetic peptide, bought: Schafer-N
B2: recombinant human ATG12 (autophagy-related protein 12) (natural protein, UniProt O94817 1-140, looked up)
chain: MAEEPQSVLQLPTSIAAGGEGLTDVSPETTTPEPPSSAAVSPGTEEPAGDTKKKIDILLKAVGDTPIMKTKKWAVERTRTIQGLIDFIKKFLKLVASEQLFIYVNQSFAPSPDQEVGTLYECFGSDGKLVLHYCKSQAWG
notes: source: bought: BIOZOL

Conditions in all cases: both partners purified
Assay [1] has as its target recombinant human LC3B (microtubule-associated protein 1 light-chain 3) (human, UniProt Q9GZQ8 1-120). Put plainly: ELISA; competition: recombinant LC3B, ATG12 or Aβ1-42 coated; L1Fc in solution alone or with a 20-fold molar excess of Aβ, L1-LIR peptide or mutated LIR peptide as competitor, 1 h at room temperature; detected with HRP-coupled anti-Fc antibody. In general terms: An ELISA detects its analyte on a solid surface through an enzyme-linked reagent.

Assay [2] concerns the target B2. The description is as above.
Assay [3] concerns the target T1, L1Fc, extracellular domain of mouse L1 fused to Fc from human IgG (mouse, UniProt P11627 35-1112).
T1 construct: The methods say that the Fc fusion presents dimers, not monomeric domains; also called extracellular domain of L1; soluble L1Fc chimera; source: recombinant, production and purification described in [111]
Put plainly: ELISA; recombinant human ATG12 (10 µg/mL) coated on 384-well plates; different concentrations (1–200 µg/mL) of L1Fc or CHL1Fc in solution, 1 h at room temperature; detected with HRP-coupled anti-Fc antibody.

T1 sequence (P11627 35-1112): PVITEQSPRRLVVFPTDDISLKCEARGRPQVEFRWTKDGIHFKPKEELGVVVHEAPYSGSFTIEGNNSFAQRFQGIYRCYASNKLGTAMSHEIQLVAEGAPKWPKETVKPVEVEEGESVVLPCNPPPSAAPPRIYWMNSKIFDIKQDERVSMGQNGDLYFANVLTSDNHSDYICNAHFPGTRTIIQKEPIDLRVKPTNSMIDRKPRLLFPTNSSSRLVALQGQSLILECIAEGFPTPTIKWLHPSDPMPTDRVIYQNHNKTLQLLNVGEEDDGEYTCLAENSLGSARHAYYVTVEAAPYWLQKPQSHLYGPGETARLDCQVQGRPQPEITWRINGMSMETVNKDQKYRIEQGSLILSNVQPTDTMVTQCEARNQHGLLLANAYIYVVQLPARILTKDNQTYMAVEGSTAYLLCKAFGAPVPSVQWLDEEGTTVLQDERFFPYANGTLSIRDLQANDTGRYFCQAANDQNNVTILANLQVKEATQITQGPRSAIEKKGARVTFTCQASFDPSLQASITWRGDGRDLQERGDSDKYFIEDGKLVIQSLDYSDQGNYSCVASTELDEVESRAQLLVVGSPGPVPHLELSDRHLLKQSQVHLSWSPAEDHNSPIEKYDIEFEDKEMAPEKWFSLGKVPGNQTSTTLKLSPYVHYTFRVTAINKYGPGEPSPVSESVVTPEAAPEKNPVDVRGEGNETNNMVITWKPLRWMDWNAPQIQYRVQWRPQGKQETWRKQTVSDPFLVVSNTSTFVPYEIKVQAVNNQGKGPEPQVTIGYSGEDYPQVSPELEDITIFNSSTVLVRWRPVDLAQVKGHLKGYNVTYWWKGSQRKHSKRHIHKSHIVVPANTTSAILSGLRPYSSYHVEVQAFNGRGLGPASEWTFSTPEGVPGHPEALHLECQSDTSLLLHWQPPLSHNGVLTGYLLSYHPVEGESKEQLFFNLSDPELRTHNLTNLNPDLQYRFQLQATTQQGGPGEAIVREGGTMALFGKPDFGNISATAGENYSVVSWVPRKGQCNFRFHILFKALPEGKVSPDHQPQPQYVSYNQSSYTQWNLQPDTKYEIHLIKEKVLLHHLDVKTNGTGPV

Consider B1, for which the binding result in assay [1] and in assay [2] was “binds” throughout.
Turning to B2, the binding result in assay [3] is listed as “binds”.
